In patent publication US20150004189A1:
Substitutions are numbered along the chain they refer to.

What was measured:
[1] = target: T1, HLA DP molecule DPB1*0401 (human); experiment: inhibition of radiolabeled peptide binding to purified HLA DP
T1 chain 1: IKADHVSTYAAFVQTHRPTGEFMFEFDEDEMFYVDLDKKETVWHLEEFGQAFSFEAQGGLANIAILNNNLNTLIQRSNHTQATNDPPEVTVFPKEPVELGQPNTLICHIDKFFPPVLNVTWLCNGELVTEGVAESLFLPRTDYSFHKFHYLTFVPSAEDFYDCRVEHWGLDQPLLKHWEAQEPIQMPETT
T1 chain 2: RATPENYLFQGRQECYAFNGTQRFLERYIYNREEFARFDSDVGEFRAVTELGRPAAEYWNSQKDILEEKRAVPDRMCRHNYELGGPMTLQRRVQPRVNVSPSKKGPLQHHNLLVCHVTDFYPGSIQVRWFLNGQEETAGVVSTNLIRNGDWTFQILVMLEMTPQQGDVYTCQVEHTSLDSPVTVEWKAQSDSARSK

[2] = target: T2, HLA DP molecule DPB1*0201 (human); experiment: competition vs radiolabeled peptide, purified HLA-DP
T2 chain 1: T1 chain 1
T2 chain 2: T1 chain 2 with A36V, A55D, A56E, K69E

[3] = target: T1, HLA DP molecule DPB1*0401 (human); experiment: as above
[4] = target: HLA-DR molecules on the donors' cells (locus; alleles not stated); experiment: cell-based or functional assay
[5] = target: T3, HLA-DQ molecule DQB1*0501 (human); experiment: competition: inhibition of radiolabeled peptide binding to purified HLA
T3 chain 1: not shown
T3 chain 2: not shown

HLA-DR DRB1*0301 (human) = target: T4, HLA-DR DRB1*0301 (human); experiment: inhibition of radiolabeled peptide binding to purified HLA class II; details: remark: other sources report otherwise
T4 chain 1: not shown
T4 chain 2: not shown

[6] = target: T5, HLA DQ molecule DQB1*0402 (human), P01909; experiment: as above
T5 chain 1: not shown
T5 chain 2: not shown

[7] = target: HLA DQ molecule DQB1*0502 (human); experiment: as above
[8] = target: HLA DQ molecule DQB1*0503 (human); experiment: as above
[9] = target: HLA DQ molecule DQB1*0202 (human); experiment: as above
[10] = target: HLA DQ molecule DQB1*0602 (human); experiment: as above

B1: Alt a 1 peptide, position 143 (Peptide ID 3324.0016) (peptide)
peptide: VADAYITLVTLPKSS
modifications: not checked
[1]
  IC50: 2500 nM

B2: Pen ch 18 peptide, position 291, … (Peptide ID 3324.1331) (peptide)
peptide: LDLAVNAAVDAGIHF
modifications: not checked
[2]
  IC50: 5.05 µM
[3]
  IC50: 9.18 µM

B3: Alt a 1 peptide, position 111 (Peptide ID 3324.0013) (peptide)
peptide: KVSDDITYVATATLP
modifications: not checked
[1]
  IC50: 1610 nM

B4: Alt a 1 peptide, position 116 (Peptide ID 3324.0014) (peptide)
peptide: ITYVATATLPNYCRA
modifications: not checked
[1]
  IC50: 2990 nM

B5: Lol p 2 (51-70) epitope region, Rye Grass (peptide, UniProt P14947 51-70, looked up)
peptide: DGVWEIKSDKPLKGPFNFRF
[4]
  Region restriction(s) DR (ELISPOT response inhibited by locus-specific mAb): 3 donors

B6: Alt a 1 peptide, position 11, Peptide ID 3324.0017 (peptide)
peptide: AAAGLAAAAPLESRQ
modifications: not checked
[5]
  IC50: 50 µM

B7: Alt a 1 peptide, position 6, Peptide ID 3324.0015 (peptide)
peptide: IASLFAAAGLAAAAP
modifications: not checked
HLA-DR DRB1*0301 (human)
  IC50: 32.1 µM

B8: Pen ch 13 (271-285) peptide …, Peptide ID 3324.1303 (peptide)
peptide: GIFLSVAAGNEAENA
modifications: not checked
[6]
  IC50: 102 nM
[7]
  IC50: 50 µM
[8]
  IC50: 50 µM

B9: Pen ch 18 (291-305) peptide …, Peptide ID 3324.1331 (peptide)
peptide: LDLAVNAAVDAGIHF
modifications: not checked
[9]
  IC50: 361 nM
[10]
  IC50: 480 nM

B10: Dac g 2 (11-30) epitope region, Orchard Grass (peptide, UniProt Q41183 11-30, looked up)
peptide: GSDEKNLALSIKYNKEGDSM
[4]
  Region restriction(s) DR (ELISPOT response inhibited by locus-specific mAb): 1 donors
